Test results as given in the supplement of paper PMC12042874.
± gives the uncertainty stated by the source.

Test: amyloid nucleation score (Sup35N fusion, yeast selection) (log enrichment); library NNK2; higher = more nucleation; inactive = no reads after selection
Outline: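 Nucleation score is defined as the DiMSum log enrichment of output over input reads, with centring on the mode score of non-aggregating sequences. A minimum of 100 input reads was required for each sequence. Reads came from Illumina sequencing of plasmid inserts from psi-negative yeast expressing Sup35N fused to peptides of 20 random codons, induced with 100 μM copper sulfate for 24 hours and grown 7 days at 30°C on medium lacking adenine and uracil.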

| Substance | amyloid nucleation score |
| --- | --- |
| FVNATVLR | 1.24 ± 0.16 |
| FVNLRVILH | 5.18 ± 0.052 |
| FVQSNYDSSF | inactive |
| FVSVIILCFCVIQPMNLNSV | 1.4 ± 0.15 |
| FVSYED | -0.793 ± 1.1 |
| FVYQCMCFNADLCFKFRLCS | 7.883 ± 0.065 |
| FVYTLAYNRRWYSRAVSFES | -0.461 ± 0.79 |
| FWEKSSKVFW | 3.33 ± 0.13 |
| FWHLYPQCQDWSDLQN | inactive |
| FWIEDF | -0.291 ± 1.1 |
| FWKNYQIMMRMCDKHVIEDV | 2.95 ± 0.11 |
| FWQSSLDSS | 0.213 ± 0.38 |
| FWSDSVVFRPDTVRLERSLG | 0.025 ± 1.1 |
| FWVMANYRH | 3.18 ± 0.047 |
| FYATYSSLRLGVVTIIPPGL | 4.49 ± 0.087 |
| FYCCIITYLDMA | 6.667 ± 0.026 |
| FYLGVALVHNKAWLFLWKDD | inactive |
| FYLKFHRCGR | 1.3 ± 0.11 |
| FYMLASPSSTLDSTPKVRSC | -0.665 ± 1.1 |
| FYPWDSVCEFSLGCMSNPQA | 0.158 ± 0.3 |
| FYRHCFVVTNKRAPSKSRSK | 4.61 ± 0.11 |
| FYRNPHR | 0.706 ± 0.81 |
| FYYSLTMRLD | -0.322 ± 0.42 |
| FYYYLFFLAIISCTGYLALS | 0.286 ± 0.42 |
| GAHFYRTVMNVRSTLSRYIN | -0.507 ± 0.48 |

| Substance | amyloid nucleation score |
| --- | --- |
| GAHNMREGAAPGRKRVVLAM | 1.22 ± 0.35 |
| GALVR | -1.08 ± 0.55 |
| GAMDLHQWASMMNMFPAMCV | 0.731 ± 0.47 |
| GASRVAPVCQTTKSLKCMAK | -1.17 ± 1.1 |
| GATRALRSVTRR | 3.26 ± 0.13 |
| GCDLYL | -0.256 ± 0.79 |
| GCFERGNLFNFV | inactive |
| GCGFFDFSVSWL | -1.24 ± 0.78 |
| GCKVIYIYIIHIFKCIITNW | inactive |
| GCVCDVGPVTVRGVNGVLVS | 1.45 ± 0.26 |
| GCVGAVRRLEGSIVYEDRTL | 0.944 ± 0.25 |
| GCVLSVSWWVGSSLVNWGYY | 5.356 ± 0.052 |
| GCVPVRYIARSAWNNPDLPN | 0.829 ± 0.57 |
| GCWYIDIWL | 1.73 ± 0.11 |
| GCYRLNSLYATIQLRLLSWW | -0.46 ± 1.1 |
| GDFSPYYCHCYIIMVCGMLG | inactive |
| GDIMKCSRCSATLGEPMKRC | 0.218 ± 1.1 |
| GDQPRPKMLLSWHRFLLQQS | 0.887 ± 0.19 |
| GDTCELCSVCQVNGV | 1.15 ± 0.17 |
| GDVGAVRVSCVCWLVLVKRG | 0.066 ± 0.76 |
| GDVLPNTSTGIFFSQPIMCA | 0.501 ± 0.43 |
| GDYYFV | -1.19 ± 1 |
| GENSVLRSGNFKYKAWFCGG | -0.342 ± 1 |
| GEPSCATCITVCLVLLSTQM | 6.48 ± 0.081 |
| GEQLLED | inactive |

| Substance | amyloid nucleation score |
| --- | --- |
| GESNMVYCLYQGTILSFAGW | 8.379 ± 0.04 |
| GFDYLIFLNKHRLVMSWSFE | -0.675 ± 1.1 |
| GFGNFVINDWSLR | -1.56 ± 1.1 |
| GFGSVLIW | -0.523 ± 1 |
| GFIGNCYSFASLFGPMSHYV | -0.588 ± 1.1 |
| GFIISFYISDSCKSLCWQPM | 0.339 ± 0.53 |
| GFKVF | -0.937 ± 0.31 |
| GFLFRFETRKTHRSCLSWIG | 1.71 ± 0.13 |
| GFLIKWNNGVLVLVSAMMCI | -0.598 ± 0.4 |
| GFMFGMLTISLRSVMFVARV | -0.227 ± 0.32 |
| GFRDMGDHIDVREKFSWADA | inactive |
| GFRIGTLLGTMINSMNCSFI | 2.88 ± 0.12 |
| GFRSLNVSRANLCSYIRHLL | 0.02 ± 0.44 |
| GFSLNISKCVFLRFIWVFHF | -0.447 ± 1.1 |
| GFTENKIRDVFGVFHFIVGD | 0.479 ± 0.8 |
| GFVDTTLCMVNLFYGRKSHL | 7.862 ± 0.047 |
| GFVGF | 2.68 ± 0.17 |
| GFWFFIYVDCVLCVSPTRIN | -0.663 ± 0.56 |
| GFWKTYNTFVLSWSRTNCLQ | 0.431 ± 0.64 |
| GFYYRRSMESGNTFSGCSTA | -0.776 ± 0.62 |
| GGCCSLPLACNKKGCCYWVA | 1.84 ± 0.47 |
| GGCSTRWHKDVYDNGDNGDF | -0.545 ± 0.63 |
| GGISNVCLSYVRFQEFVFNV | 5.69 ± 0.093 |
| GGLTIAKFCESMVLLRFSRT | 0.399 ± 0.32 |
| GGQDDVIGLRKSVMAENRVH | 0.537 ± 0.42 |

| Substance | amyloid nucleation score |
| --- | --- |
| GGSKLVLLFE | -0.81 ± 0.76 |
| GGSLPMFWKIMPGRHCGK | -0.019 ± 0.32 |
| GGVHGGFRSYVVAIWYGMLN | -1.37 ± 1.1 |
| GGVYASKYLCGYIKLSLKAS | -0.154 ± 0.3 |
| GHKDSEDGLNTKFFRRSN | inactive |
| GICRKNDRTSDQRYFVKSL | -0.575 ± 0.53 |
| GIFIFNAFEEMSVGKDSELL | -0.529 ± 0.27 |
| GIGLRLCLSDRLWMRSIYVD | 3.56 ± 0.082 |
| GIHCGR | 3.24 ± 0.06 |
| GIIAMHSLPRQIGIVLFIAR | 3.3 ± 0.088 |
| GIIISRSNKLFFVKCCNN | 1.7 ± 0.079 |
| GIKDI | -1.05 ± 0.79 |
| GIKHLKGTNDTSMYCHVSIV | 0.298 ± 0.4 |
| GILWRGVLVRYVCPVVSTSI | inactive |
| GIMYGEFMPLR | inactive |
| GIQGLSLYRLLSPALWSPSG | 0.168 ± 0.49 |
| GISRGLILEVTC | 1.12 ± 0.43 |
| GITPRKDFFYYTLVDTCLVL | -0.198 ± 0.46 |
| GITSFDTIYCGRVVYQRWLL | 0.578 ± 0.81 |
| GIVFVLLLMNVFEVCRSELM | inactive |
| GKDGTFRVVPRQEDRSAHWL | -0.464 ± 1.1 |
| GKHIGSLSEWTMVHHDGARR | 1.21 ± 0.32 |
| GKILVAFLWPISCVR | 0.037 ± 0.65 |
| GKITVRDISYVRIWRDSLLY | 3.25 ± 0.1 |
| GKMPIRNNKVLLKRSATNLC | 5.63 ± 0.067 |

| Substance | amyloid nucleation score |
| --- | --- |
| GKPCH | 0.52 ± 0.33 |
| GKSSHG | 0.93 ± 0.32 |
| GKTYVGYFLFNLTGTVYFKR | 0.004 ± 1.1 |
| GLDCR | 0.024 ± 0.44 |
| GLFLRSTP | -0.402 ± 0.42 |
| GLIMVSSVLCTFAGMGDNWA | 5.84 ± 0.091 |
| GLIVKLMGIFRNRSETSESQ | 4.47 ± 0.083 |
| GLLIGSDDLLASVICVITCS | -1.15 ± 1.1 |
| GLLSCMPCRGINLLPSVIRR | 1.21 ± 0.61 |
| GLSGKCLYFISVWYTKFLIS | inactive |
| GLSNR | 0.458 ± 0.28 |
| GLSVKTGQGSGFPDLCVGKR | 0.838 ± 0.17 |
| GLVFRS | inactive |
| GLVGPSI | -0.29 ± 0.48 |
| GLVNSTPRKRKLFKGDAVHS | 0.321 ± 0.48 |
| GLVRSRVWRRASSPGYGECV | 1.3 ± 0.33 |
| GLYGMGIQMGPRISVSYPAA | 0.536 ± 0.65 |
| GMEINAYY | 0.048 ± 0.65 |
| GMIGNTIGNECTIYLNDQYV | 0.825 ± 0.34 |
| GMKCAAFSESVNHRLQFNGT | -0.345 ± 0.33 |
| GMSSIINVELAGQWTWVKFN | 4.18 ± 0.066 |
| GMTVR | 0.011 ± 0.54 |
| GMVEAR | 0.095 ± 0.46 |
| GMVVFVI | 0.21 ± 0.51 |
| GMWFLRLSSFTCI | 5.722 ± 0.049 |

| Substance | amyloid nucleation score |
| --- | --- |
| GNCCDDCP | 1.53 ± 0.24 |
| GNEVRGNTMVENPTMSLVMG | 0.712 ± 0.39 |
| GNLLKREFAIVFFSVYKQEA | -0.27 ± 0.76 |
| GNLLVGAKSMVLSRFIGLYR | 2.16 ± 0.23 |
| GNMKCQVTLILMSTSDIREL | 7.039 ± 0.041 |
| GNQRFVFVLRMGTVGPLHMF | 0.836 ± 0.55 |
| GNRSTVLRSNLDVYLQDGTV | 1.51 ± 0.32 |
| GPFNKMYAYEIRQTGAFWRQ | -0.098 ± 0.79 |
| GPITWTNSSGCRIPMPSFSE | 1.42 ± 0.36 |
| GPLFRFFRHRAFLQSTFSA | -0.342 ± 0.24 |
| GPLGHVGLFV | inactive |
| GPMRGC | -0.548 ± 1.1 |
| GPRLEGWSPPDRAVLSGCSD | 0.656 ± 0.44 |
| GPVVIVDNFQYDCLA | -0.109 ± 0.76 |
| GQGDYMRFSDNAGGPYSKLE | 1.73 ± 0.24 |
| GQGKRNVSLSNGGDKFNLDV | 4.98 ± 0.1 |
| GQIAKVKPVRWKFKTTTWGS | 1.26 ± 0.41 |
| GQLNLGCWSYRGSRFWTWLR | inactive |
| GQNTDVTCQRYERTM | 0.329 ± 0.62 |
| GRAPLSNNLMDSVTVESVHM | -0.744 ± 0.28 |
| GRCYIISCPESWHKPMYVAI | 0.142 ± 0.34 |
| GRGERCKGSKIGCSRKAKID | 0.98 ± 0.3 |
| GRHQVIGMWCSRLFPLVRRS | 0.375 ± 0.56 |
| GRMQTKTILKNIECNNDSLM | 2.39 ± 0.057 |
| GRNLFSFVFQMLV | 0.043 ± 0.29 |

| Substance | amyloid nucleation score |
| --- | --- |
| GRRLKGYVTSGIEDWLKGRM | 0.908 ± 0.35 |
| GRSGIFCLPCMLCKFY | 6 ± 0.064 |
| GRSSAWFNEGRLW | 0.383 ± 0.39 |
| GRVRKSHTVGSACNILYSCA | 1.32 ± 0.29 |
| GSCNRKRHDVAYHLKCGMVA | 1.09 ± 0.14 |
| GSHKK | -1 ± 1.1 |
| GSIVVNGIGKLGKERRVTSV | 0.302 ± 0.21 |
| GSKALVSGGFVSGVKYGKAI | inactive |
| GSKNFPRPIPDYVWVFTGAI | 0.032 ± 0.43 |
| GSNIEGY | -0.512 ± 0.46 |
| GSQVYPPPPMADM | 0.426 ± 0.3 |
| GSRCITQVLA | 0.157 ± 0.49 |
| GSRHRDLYLGLRLYYTDVEV | -0.763 ± 0.36 |
| GSRPEWARVLGSLEIGCGAK | 0.535 ± 0.3 |
| GSTVKSIVCDSVWS | 0.082 ± 0.65 |
| GSVGGSGIAACGTSDGGTVR | 2.02 ± 0.27 |
| GSVRSMVGFNACRTSLYESC | 0.012 ± 1 |
| GSVRYWK | -0.685 ± 0.36 |
| GSWFVPRMSLSWAGSETGPQ | inactive |
| GTCLSFYEFNSWWIIKMFSK | 0.657 ± 0.23 |
| GTIYLFRWSFMWRFWMGTGL | -0.644 ± 0.54 |
| GTKKARSGARQCLGWEILWM | 0.516 ± 0.43 |
